Test results as given in patent US20260250318A1, “COMPOSITIONS AND METHODS FOR CROSSING THE BLOOD BRAIN BARRIER” (VOYAGER THERAPEUTICS, INC., priority 2022, published 2026).

Columns and labels:
[1] = target: T1, human ALPL expressed on cells (alkaline phosphatase tissue-nonspecific isozyme, NM_000478.4) (human, UniProt P05186 18-501); assay: cell-based or functional assay
T1 sequence: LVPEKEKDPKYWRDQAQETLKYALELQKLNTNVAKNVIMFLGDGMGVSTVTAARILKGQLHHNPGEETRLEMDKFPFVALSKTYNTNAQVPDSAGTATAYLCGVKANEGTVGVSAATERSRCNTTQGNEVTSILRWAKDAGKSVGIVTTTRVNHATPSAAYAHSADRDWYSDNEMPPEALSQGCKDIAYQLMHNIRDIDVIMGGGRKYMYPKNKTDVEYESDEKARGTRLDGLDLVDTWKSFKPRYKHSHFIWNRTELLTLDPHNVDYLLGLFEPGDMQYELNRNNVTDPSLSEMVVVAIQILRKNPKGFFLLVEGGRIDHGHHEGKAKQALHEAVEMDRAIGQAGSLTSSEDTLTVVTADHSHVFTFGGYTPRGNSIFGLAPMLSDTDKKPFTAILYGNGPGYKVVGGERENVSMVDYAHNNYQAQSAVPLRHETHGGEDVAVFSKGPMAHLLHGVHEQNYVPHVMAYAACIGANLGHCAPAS

[2] = target: T1, human ALPL expressed on cells (alkaline …); assay: cell-based or functional assay; remark: listed apart in the source
[3] = target: T2, murine ALPL ortholog expressed on HEK 293T cells (NM_001287172.1) (mouse, UniProt P09242 18-501); assay: cell-based or functional assay
T2 sequence: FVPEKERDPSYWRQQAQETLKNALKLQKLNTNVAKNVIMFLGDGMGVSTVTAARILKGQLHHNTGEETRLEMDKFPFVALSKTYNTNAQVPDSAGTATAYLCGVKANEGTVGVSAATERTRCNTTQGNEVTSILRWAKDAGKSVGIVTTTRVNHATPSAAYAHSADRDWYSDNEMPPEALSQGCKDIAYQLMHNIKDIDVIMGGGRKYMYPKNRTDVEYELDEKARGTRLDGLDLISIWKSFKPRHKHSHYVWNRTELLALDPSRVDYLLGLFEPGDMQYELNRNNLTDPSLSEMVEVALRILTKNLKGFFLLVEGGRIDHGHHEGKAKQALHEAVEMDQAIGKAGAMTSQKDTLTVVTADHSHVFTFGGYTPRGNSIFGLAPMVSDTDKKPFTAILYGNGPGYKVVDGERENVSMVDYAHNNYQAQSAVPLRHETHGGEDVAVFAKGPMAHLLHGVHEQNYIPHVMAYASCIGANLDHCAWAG

[4] = target: T3, cynomolgus ALPL ortholog expressed on HEK 293T cells (XM_005544525) (Macaca fascicularis); assay: cell-based or functional assay
T3 chain: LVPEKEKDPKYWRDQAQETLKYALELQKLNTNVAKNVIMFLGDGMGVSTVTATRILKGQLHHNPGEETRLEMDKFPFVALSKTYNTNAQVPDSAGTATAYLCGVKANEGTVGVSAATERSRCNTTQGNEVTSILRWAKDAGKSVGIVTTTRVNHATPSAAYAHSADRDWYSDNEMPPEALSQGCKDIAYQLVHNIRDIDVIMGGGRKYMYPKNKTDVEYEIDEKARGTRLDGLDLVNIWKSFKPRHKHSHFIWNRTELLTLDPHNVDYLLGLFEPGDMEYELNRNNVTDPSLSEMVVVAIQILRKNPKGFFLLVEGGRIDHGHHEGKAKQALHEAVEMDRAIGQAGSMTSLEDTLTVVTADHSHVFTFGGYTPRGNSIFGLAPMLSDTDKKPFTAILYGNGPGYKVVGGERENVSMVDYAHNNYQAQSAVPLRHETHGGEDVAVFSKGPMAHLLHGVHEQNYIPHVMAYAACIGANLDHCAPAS

[5] = target: T4, His-tagged ALPL (recombinant, soluble; SPR, BLI and ELISA of Examples 8 and 13) (UniProt P05186 18-502); assay: SPR (Biacore 8K), TTM-002 immobilized on CM5 chip at approximately 6300RU, His-tagged ALPL as analyte; value in the text differs from Table 41
T4 construct: also called ALPL receptor; alkaline phosphatase tissue-nonspecific isozyme
T4 sequence: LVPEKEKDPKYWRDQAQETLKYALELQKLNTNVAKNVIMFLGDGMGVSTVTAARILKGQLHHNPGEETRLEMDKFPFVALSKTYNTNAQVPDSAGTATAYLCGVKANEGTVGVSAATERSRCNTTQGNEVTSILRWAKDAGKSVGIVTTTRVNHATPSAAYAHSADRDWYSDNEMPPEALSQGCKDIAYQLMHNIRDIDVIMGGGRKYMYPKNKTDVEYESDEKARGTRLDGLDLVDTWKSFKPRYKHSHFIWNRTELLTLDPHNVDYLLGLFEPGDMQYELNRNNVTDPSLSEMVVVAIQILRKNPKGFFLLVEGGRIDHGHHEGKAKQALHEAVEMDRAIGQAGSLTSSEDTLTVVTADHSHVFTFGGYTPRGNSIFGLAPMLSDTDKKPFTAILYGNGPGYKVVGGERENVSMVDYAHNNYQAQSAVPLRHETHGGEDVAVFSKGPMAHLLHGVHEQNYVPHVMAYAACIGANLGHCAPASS

B1: TTM-002 capsid variant (AAV particle comprising the TTM-002 AAV9 capsid variant) (other)
chain 1: MAADGYLPDWLEDNLSEGIREWWALKPGAPQPKANQQHQDNARGLVLPGYKYLGPGNGLDKGEPVNAADAAALEHDKAYDQQLKAGDNPYLKYNHADAEFQERLKEDTSFGGNLGRAVFQAKKRLLEPLGLVEEAAKTAPGKKRPVEQSPQEPDSSAGIGKSGAQPAKKRLNFGQTGDTESVPDPQPIGEPPAAPSGVGSLTMASGGGAPVADNNEGADGVGSSSGNWHCDSQWLGDRVITTSTRTWALPTYNNHLYKQISNSTSGGSSNDNAYFGYSTPWGYFDFNRFHCHFSPRDWQRLINNNWGFRPKRLNFKLFNIQVKEVTDNNGVKTIANNLTSTVQVFTDSDYQLPYVLGSAHEGCLPPFPADVFMIPQYGYLTLNDGSQAVGRSSFYCLEYFPSQMLRTGNNFQFSYEFENVPFHSSYAHSQSLDRLMNPLIDQYLYYLSKTINGHDSPHKSGQNQQTLKFSVAGPSNMAVQGRNYIPGPSYRQQRVSTTVTQNNNSEFAWPGASSWALNGRNSLMNPGPAMASHKEGEDRFFPLSGSLIFGKQGTGRDNVDADKVMITNEEEIKTTNPVATESYGQVATNHQSAQAQAQTGWVQNQGILPGMVWQDRDVYLQGPIWAKIPHTDGNFHPSPLMGGFGMKHPPPQILIKNTPVPADPPTAFNKDKLNSFITQYSTGQVSVEIEWELQKENSKRWNPEIQYTSNYYKSNNVEFAVNTEGVYSEPRPIGTRYLTRNL
chain 2: TAPGKKRPVEQSPQEPDSSAGIGKSGAQPAKKRLNFGQTGDTESVPDPQPIGEPPAAPSGVGSLTMASGGGAPVADNNEGADGVGSSSGNWHCDSQWLGDRVITTSTRTWALPTYNNHLYKQISNSTSGGSSNDNAYFGYSTPWGYFDFNRFHCHFSPRDWQRLINNNWGFRPKRLNFKLFNIQVKEVTDNNGVKTIANNLTSTVQVFTDSDYQLPYVLGSAHEGCLPPFPADVFMIPQYGYLTLNDGSQAVGRSSFYCLEYFPSQMLRTGNNFQFSYEFENVPFHSSYAHSQSLDRLMNPLIDQYLYYLSKTINGHDSPHKSGQNQQTLKFSVAGPSNMAVQGRNYIPGPSYRQQRVSTTVTQNNNSEFAWPGASSWALNGRNSLMNPGPAMASHKEGEDRFFPLSGSLIFGKQGTGRDNVDADKVMITNEEEIKTTNPVATESYGQVATNHQSAQAQAQTGWVQNQGILPGMVWQDRDVYLQGPIWAKIPHTDGNFHPSPLMGGFGMKHPPPQILIKNTPVPADPPTAFNKDKLNSFITQYSTGQVSVEIEWELQKENSKRWNPEIQYTSNYYKSNNVEFAVNTEGVYSEPRPIGTRYLTRNL
chain 3: MASGGGAPVADNNEGADGVGSSSGNWHCDSQWLGDRVITTSTRTWALPTYNNHLYKQISNSTSGGSSNDNAYFGYSTPWGYFDFNRFHCHFSPRDWQRLINNNWGFRPKRLNFKLFNIQVKEVTDNNGVKTIANNLTSTVQVFTDSDYQLPYVLGSAHEGCLPPFPADVFMIPQYGYLTLNDGSQAVGRSSFYCLEYFPSQMLRTGNNFQFSYEFENVPFHSSYAHSQSLDRLMNPLIDQYLYYLSKTINGHDSPHKSGQNQQTLKFSVAGPSNMAVQGRNYIPGPSYRQQRVSTTVTQNNNSEFAWPGASSWALNGRNSLMNPGPAMASHKEGEDRFFPLSGSLIFGKQGTGRDNVDADKVMITNEEEIKTTNPVATESYGQVATNHQSAQAQAQTGWVQNQGILPGMVWQDRDVYLQGPIWAKIPHTDGNFHPSPLMGGFGMKHPPPQILIKNTPVPADPPTAFNKDKLNSFITQYSTGQVSVEIEWELQKENSKRWNPEIQYTSNYYKSNNVEFAVNTEGVYSEPRPIGTRYLTRNL
- luciferase activity, fold change relative to pCMV6 transfected HEK 293T cells (ALPL transfected cells) [1]: 166 fold
- fold change in luciferase activity relative to the pCMV6 control cells (Human ALPL) [2]: 60.3 fold
- fold change in luciferase activity relative to the pCMV6 control cells (Murine ALPL) [3]: 57.2 fold
- fold change in luciferase activity relative to the pCMV6 control cells (Cynomolgus ALPL) [4]: 81.5 fold
- kon [5]: 32000 M⁻¹ s⁻¹
